Test results as given in the supplement of paper PMC10724198.
± gives the standard deviation of the averaged measurements.

Test system: Saccharomyces cerevisiae
Test: protein stability index of tFT-peptide fusion (C-terminal peptide) (PSI (0-1 scale)); higher = more stable (slower turnover)
Details: genetic background: wild type; temperature: 30 C
Protocol: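 Multiplexed protein stability (MPS) profiling in S. cerevisiae. Random 12-aa peptides (tFT-X12 library) are fused to the C-terminus of a sfGFP-mCherry tandem fluorescent timer, after mCherry and a GGGS linker. Cells are FACS-sorted into 8 mCherry/sfGFP bins and deep-sequenced. The protein stability index (PSI) is the read-weighted bin average, scaled from 0 (unstable) to 1 (stable). Only peptides with >10 reads are reported; cells were grown at 30 °C in SC-His with glucose.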
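Also: PSI is a weighted mean of sequencing reads over stability bins, variants kept only with over 10 reads, mCherry proximal and sfGFP distal, peptide attached via GGGS linker.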

Sequence | protein stability index
GLWCVGGGAVGV | 0.6818 ± 0.004
GLYTRLYIPRPC | 0.739 ± 0.033
GMRRGGGWCRGW | 0.674 ± 0.027
GMTYEKIKNVIE | 0.651 ± 0.025
GNAGGFRSLISW | 0.663 ± 0.065
GNGENKVIVRKS | 0.696 ± 0.045
GNGIRLIPPAYS | 0.725 ± 0.028
GNKMYRSREGNC | 0.6709 ± 0.003
GNTQSIEQALLV | 0.752 ± 0.028
GPFDVLPEPNPG | 0.6348 ± 0.0037
GPFRRLRCTAFI | 0.713 ± 0.059
GPGCDDDASGSV | 0.686 ± 0.013
GPGFRSGVELVW | 0.759 ± 0.069
GPGGTVDLIWGS | 0.703 ± 0.034
GPGRIPLTSALP | 0.63968 ± 0.00049
GPHAPPPSFPAP | 0.718 ± 0.074
GPPPPPPPASPH | 0.715 ± 0.1
GPPPPSPRPTRR | 0.723 ± 0.031
GPPPRCKYLRAS | 0.6348 ± 0.00079
GPPTKLTLNQQK | 0.6286 ± 0.00082
GPRPATTSPLPT | 0.721 ± 0.2
GPRRLGGTSLGI | 0.651 ± 0.098
GPRRLNAYADPF | 0.722 ± 0.082
GPSPLTMPGSPS | 0.683 ± 0.064
GPSRKCPFDVVS | 0.6654 ± 0.0021
GPTGPATQNDDS | 0.671 ± 0.018

Sequence | protein stability index
GPVLAVTRIVCK | 0.552 ± 0.0096
GPYPPFSPPPLS | 0.697 ± 0.072
GQGACWLCVGGR | 0.685 ± 0.02
GQKKGRGGEREE | 0.676 ± 0.03
GQLGGRGNRRVA | 0.718 ± 0.041
GQQILGGRSLEG | 0.63 ± 0.035
GQQVDKMLWDEV | 0.715 ± 0.025
GQVAKVKVRKKK | 0.755 ± 0.052
GRCFGGVVRGAL | 0.655 ± 0.051
GRCVCVLFWHVS | 0.571 ± 0.0078
GRDCSSHFIVPL | 0.713 ± 0.029
GRDGQTLYLVLL | 0.686 ± 0.03
GREGELDKKKWH | 0.723 ± 0.051
GREGKEKKKPRR | 0.696 ± 0.097
GREGKHLGAPPS | 0.68 ± 0.032
GREGQGRGGQQG | 0.629 ± 0.05
GRERGTEKGESG | 0.631 ± 0.11
GRERMVVVSCGS | 0.629 ± 0.043
GRGDNRKVDGEG | 0.671 ± 0.061
GRGGGGGRDREA | 0.703 ± 0.076
GRGGGRGVGVVG | 0.6345 ± 0.0028
GRGGLGGGEWDR | 0.711 ± 0.0028
GRGGPSGAKAHR | 0.684 ± 0.026
GRGGTYVVLWGV | 0.661 ± 0.1
GRGKGNEREVRT | 0.656 ± 0.022
GRGLGRVMRGRV | 0.6182 ± 0.0059

Sequence | protein stability index
GRGLSSLCRRFS | 0.691 ± 0.044
GRGRDDKTYKKT | 0.669 ± 0.031
GRGRGEVMNGRG | 0.574 ± 0.0044
GRGRLLYWEKWL | 0.66 ± 0.03
GRIRGCSPFPLW | 0.63 ± 0.094
GRKCWDRSGWTV | 0.771 ± 0.014
GRKIIIRKNKIK | 0.613 ± 0.05
GRKKKINDDKKN | 0.688 ± 0.071
GRLGCAVCGSRG | 0.708 ± 0.041
GRLLRVSCHGVS | 0.701 ± 0.019
GRNFSHKKRGKY | 0.685 ± 0.03
GRPRPRSGWILL | 0.672 ± 0.067
GRQLNDSISTLK | 0.642 ± 0.015
GRQVTSTLTKLL | 0.617 ± 0.18
GRRCKNMKKMSW | 0.674 ± 0.046
GRRGRWCAGQWG | 0.6743 ± 0.0062
GRRLGREWGDAP | 0.721 ± 0.12
GRRNGLCENPRG | 0.657 ± 0.0077
GRRPPWRFSFPF | 0.769 ± 0.063
GRRRDREAVVPW | 0.732 ± 0.032
GRRRGWAWGVWG | 0.683 ± 0.0084
GRRVPGPLRSSE | 0.709 ± 0.085
GRSVSGYGSFID | 0.686 ± 0.017
GRVAMAVSGGVG | 0.638 ± 0.023
GRVGFGSGAWLR | 0.669 ± 0.0021
GRVGGRAGGRGR | 0.691 ± 0.039

Sequence | protein stability index
GRVGGRSGGRGR | 0.68 ± 0.013
GRVGSLCGWLWR | 0.722 ± 0.02
GRVRARGRRGKG | 0.625 ± 0.058
GRVRFVCVGLGG | 0.639 ± 0.047
GRWRIVSLEELQ | 0.724 ± 0.035
GRYLGARRGRAF | 0.68 ± 0.078
GRYSECCSGGGG | 0.674 ± 0.015
GSCGCLSVVSGR | 0.713 ± 0.044
GSCGWCGVARWG | 0.762 ± 0.05
GSERGGRSRGRG | 0.665 ± 0.0059
GSFVEEVFRVKS | 0.6646 ± 0.0061
GSGRNKGLWRIW | 0.725 ± 0.04
GSGSVWQGLGSG | 0.711 ± 0.032
GSGTPRTPCLSH | 0.642 ± 0.04
GSLASRGVFVVV | 0.614 ± 0.042
GSNRLYRGVTIT | 0.627 ± 0.0082
GSNRTLSLYCVG | 0.633 ± 0.016
GSPRFSNGCEYF | 0.59 ± 0.026
GSREHYGLFLGH | 0.673 ± 0.032
GSRSSDTGGRLM | 0.6819 ± 0.00074
GSRVGRATGRRR | 0.709 ± 0.014
GSRWRISYQQVL | 0.623 ± 0.037
GSSGRFFHVVVF | 0.644 ± 0.074
GSSPCHNEESGT | 0.693 ± 0.014
GSVGWRGGEGRW | 0.59 ± 0.11
GSVLRCFFRKGS | 0.6923 ± 0.0059

Sequence | protein stability index
GSVYFDLLCVRP | 0.729 ± 0.048
GSWIGGSVIGGQ | 0.763 ± 0.073
GTASGGPKVSLF | 0.656 ± 0.088
GTETKIRNKHVE | 0.645 ± 0.059
GTGMMGFFWIVA | 0.571 ± 0.069
GTKGEGGGKGGV | 0.693 ± 0.038
GTLDTDAGTINH | 0.683 ± 0.025
GTPNLTEEPPHQ | 0.761 ± 0.034
GTPPRSGLPLCT | 0.711 ± 0.0099
GTRAETQWSVGM | 0.682 ± 0.013
GTRPSPPSRLVS | 0.677 ± 0.031
GTVHQQGGPIDG | 0.676 ± 0.033
GVAGRRRRAGAW | 0.7294 ± 0.002
GVAVLAGWEVLG | 0.653 ± 0.021
GVCGGGGGWGVA | 0.6826 ± 0.0019
GVCSRVFLGRVE | 0.6836 ± 0.0065
GVDKQSGTRNIK | 0.704 ± 0.0068
GVEVAGCPGARG | 0.655 ± 0.042
GVFCHILAFLWC | 0.512 ± 0.019
GVFFVRAGSVYC | 0.579 ± 0.019
GVFHAWAWCCGF | 0.78 ± 0.099
GVGAALDVWRRR | 0.696 ± 0.033
GVGGAGIGVGMG | 0.705 ± 0.032
GVGGCVMGVGRV | 0.64763 ± 0.00048
GVGGFLGVVGVG | 0.5857 ± 0.0019
GVGGGISGGRWG | 0.666 ± 0.088

Sequence | protein stability index
GVGGGSRGVCLG | 0.638 ± 0.094
GVGGVCEMVAIK | 0.506 ± 0.028
GVGLGGFGVWGV | 0.73 ± 0.074
GVGLGRVWVKLG | 0.708 ± 0.06
GVGLWGVGFRGG | 0.7 ± 0.034
GVGSGNMEEEGQ | 0.679 ± 0.034
GVGSTGAKTVRG | 0.693 ± 0.018
GVGWGSRGVCLG | 0.659 ± 0.095
GVLHPPARPPPL | 0.654 ± 0.024
GVLVFGLGLVRD | 0.623 ± 0.027
GVLVGGERRWVL | 0.699 ± 0.053
GVQDEERYSRSE | 0.6563 ± 0.0063
GVRATRMGGGPL | 0.706 ± 0.015
GVRVRAGYDVRA | 0.6619 ± 0.0033
GVSLLCLFLGSP | 0.6212 ± 0.0041
GVTDRGIDCGIK | 0.658 ± 0.023
GVTNRQMAWCFS | 0.606 ± 0.071
GVVGGGEDRWSV | 0.738 ± 0.032
GVVGGWRGAGWR | 0.736 ± 0.064
GVVGWTAGLRGG | 0.734 ± 0.045
GVVLVARVTGSS | 0.662 ± 0.075
GVVNSGVFGINS | 0.693 ± 0.054
GVVRGEAGVIGR | 0.817 ± 0.087
GVVWMSCGGWGG | 0.764 ± 0.028
GVWAVGGGGGGR | 0.665 ± 0.069
